# Reference: the supplement of paper PMC9170038
# Test system: MS2 coat protein
# Assay: apparent KD of MS2 coat protein; designed switch direction (-1 OFF switch, 1 ON switch): 1; higher = weaker reporter binding
# How it was run: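 On Illumina chips, designed RNA switches with common flanks were made by stalled E. coli RNA polymerase. Titrations with SNAP-549-labelled MS2 coat protein, doubling from 0.7 or 1.5 nM to 3 µM, were done with no input, with 200 uM small-molecule ligand, or with an oligonucleotide input. Apparent KD is the median per design over clusters, from curve fits of normalised cluster fluorescence.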
# [1] = input ligand: microRNA oligo, concentration not stated
# [2] = Eterna round: R95, input ligand: FMN 200 uM
# [3] = Eterna round: R95, input ligand: microRNA oligo, concentration not stated
# [4] = Eterna round: R95, input ligand: none
Sequence,apparent KD of MS2 coat protein (input ligand: FMN 200 uM) [nM],apparent KD of MS2 coat protein [1] [nM],apparent KD of MS2 coat protein (input ligand: none) [nM],apparent KD of MS2 coat protein [2] [nM],apparent KD of MS2 coat protein [3] [nM],apparent KD of MS2 coat protein [4] [nM]
"GUGACCUCCCUAGGAUAUCGCCAAAUGUGAUGUCGACAUGAGGAUCACCCAUGUAUAGUCACGAACGAGAAGGAGGGUGUGGCA [Cesodi] (Eterna round: R96, puzzle: Same State NG 2)",15.6,17.5,19.4,–,–,–
GUGCAACCGUGUGAGGAUAUCGGUGAACAAACAUGAGGAUCACCCAUGUCCGAAGCUCGGUUCUCCGAGAAGGCGCACAGUUGCA [Same State 2 - Mod of Erisin v.3] (puzzle: Same State 2),–,–,–,72.6,105,224
GUGCAACCGUGUGAGGAUAUCGGUGAUCAGACAUGAGGAUCACCCAUGUCCGAAGCUCGGAUCUCCGAGAAGGCGCACAGUUGCA [Same State 2 - Mod of Erisin v.6] (puzzle: Same State 2),–,–,–,92.8,232,296
"GUGCGGGUGCCACAGGAUAUACGUGGAUCGACAUGAGGAUCACCCAUGUAUAUCCUAAUAAUUGCGUAGAAGGGUGGUCAGCCGU [Enbebiqu] (Eterna round: R96, puzzle: Same State 2)",144,196,–,–,–,–
GUGCGGGUGCCACAGGAUAUACGUGGAUCGACAUGAGGAUCACCCAUGUAUAUCCUAAUAAUUGCGUAGAAGGGUGGUCAGCCGU [Enbebiqu] (puzzle: Same State 2),–,–,–,85.9,308,340
"GUGCUCGUGUAAGGAUAUGCUUCCGUUUCGGCUGCAGAAGGUACUAUUAUACAUGAGGAUCACCCAUGUCUCUUUUGUUUGGUG [salish99_SSNG1_r04_909] (Eterna round: R96, puzzle: Same State NG 1)",89.1,55.5,87.9,–,–,–
"GUGCUCGUGUGAGGAUAUGCUUCCGGUUCGGCUGCAGAAGGUACUAUUAUACAUGAGGAUCACCCAUGUCGCUUUUCUCCGGUG [salish99_SSNG1_r04_916] (Eterna round: R96, puzzle: Same State NG 1)",28.3,17.6,25,–,–,–
"GUGCUCGUGUGAGGAUAUGCUUCCGUUUCGGCUGCAGAAGGUACUAUUAUACAUGAGGAUCACCCAUGUCGCUUUUCUCCGGUG [salish99_SSNG1_r04_915] (Eterna round: R96, puzzle: Same State NG 1)",–,21.8,–,–,–,–
"GUGGCCUAGGCACAGGAUAUGUUGCUCGUAACAUGAGGAUCACCCAUGUGCCUAUGAGAUUUAAUGCAGAAGGGUGCACGCCACG [Edbeso] (Eterna round: R96, puzzle: Same State 2)",14.3,123,139,–,–,–
"GUGGUCAGACAUGAGGAUCACCCAUGUGGAAUAAAUAACACACAGGAUAUCAAAUAUAAAAUAUAUGAGAAGGGUGGAUUGGUG (Eterna round: R96, puzzle: Same State NG 3)",–,300,–,–,–,–
"GUGGUCAGACAUGAGGAUCACCCAUGUGGAAUAAAUAACGGACAGGAUAUUUAAUAUAGGAUAUAGAAGAAGGGUUGAUUGGUG (Eterna round: R96, puzzle: Same State NG 3)",104,77.9,90.8,–,–,–
"GUGGUCAGACAUGAGGAUCACCCAUGUGGAAUAAAUAACGGUGAGGAUAUGGAAUAUAGGAUAUACUAGAAGGCAUGAUUGGUG (Eterna round: R96, puzzle: Same State NG 3)",91.5,76.9,92.3,–,–,–
"GUGGUCAGACAUGAGGAUCACCCAUGUGGAAUAAAUAAGGGAGAGGAUAUUUAAUAUAGGAUAUAAAAGAAGGCUCGGUUGGUG (Eterna round: R96, puzzle: Same State NG 3)",86.3,113,115,–,–,–
GUUAAACAUGAGGAUCACCCAUGUAAUAUAAUGGGAGGAUAUCUGAAUUAAUUAAAUUAAGGAGAAGGCCUAUAUG [Mat - Same State 1 - Mod of Eli - D53] (puzzle: Same State 1),–,–,–,36.6,210,271
"GUUAAGAACUAAGGAUAUUGAAUACAUAUGUUUAACAUGAGGAUCACCCAUGUGGGUUGCGGUGUCGAGAAGGUAGAAUAAUAG [Mat - same State NG 2 - JL mod - D98] (Eterna round: R96, puzzle: Same State NG 2)",–,148,–,–,–,–
"GUUACAUGAGGAUCACCCAUGUAUGUGUGGGAGUAAGUGUCUUAGGAUAUCUAAUAUUUAAAUUAAGAGAAGGAAGAUUGUUGU [JMF's solution 6] (Eterna round: R96, puzzle: Same State NG 3)",112,89.9,112,–,–,–

Sequence,apparent KD of MS2 coat protein (input ligand: FMN 200 uM) [nM],apparent KD of MS2 coat protein [1] [nM],apparent KD of MS2 coat protein (input ligand: none) [nM],apparent KD of MS2 coat protein [2] [nM],apparent KD of MS2 coat protein [3] [nM],apparent KD of MS2 coat protein [4] [nM]
"GUUACAUGAGGAUCACCCAUGUAUGUGUGGGAGUAAGUGUCUUAGGAUAUCUAGUAUUUAAUGUAAGAGAAGGAAGAUUGUUGU [JMF's solution 64] (Eterna round: R96, puzzle: Same State NG 3)",130,106,96.1,–,–,–
"GUUACAUGAGGAUCACCCAUGUAUGUGUGGGAGUAAGUGUCUUAGGAUAUCUGUUAUUUAAAUUAAGAGAAGGAAGAUUGUUGU [JMF's solution 8] (Eterna round: R96, puzzle: Same State NG 3)",120,89.2,110,–,–,–
"GUUACAUGAGGAUCACCCAUGUAUGUGUGGGAGUAAGUGUCUUAGGAUAUCUGUUAUUUAAUUCAAGAGAAGGAAGAUUGUUGU [JMF's solution 46] (Eterna round: R96, puzzle: Same State NG 3)",94.6,79.1,93.7,–,–,–
"GUUACAUGAGGAUCACCCAUGUAUGUGUGGGAGUAAGUGUCUUAGGAUAUCUGUUAUUUUAUUUAAGAGAAGGAAGAUUGUUGU [JMF's solution 39] (Eterna round: R96, puzzle: Same State NG 3)",133,68.9,80.7,–,–,–
"GUUCGUUUGAUAGGAUAUCGCUUAACAUGAGGAUCACCCAUGUUUACCACGCUGGUUUUUCGUACCGAGAAGGAUUCUGAUGAU [JL JR sub007 mod 1] (Eterna round: R96, puzzle: Same State NG 2)",37.9,43.6,47.1,–,–,–
"UAAAAGAAUUAAGGAUAUUGAAUACAUAUGUUUAACAUGAGGAUCACCCAUGUGGGUUGCGGUAUCGAGAAGGUAAAAUAAUAG [Mat - Same State NG 2 - JL mod - D6] (Eterna round: R96, puzzle: Same State NG 2)",163,110,151,–,–,–
UAACAACAUAUAGAACAAGCGUGCUCGUCACAUGAGGAUCACCCAUGUCUAAGCGCUGUACCUACAUCCUCAGCGCC [Raononbeen] (puzzle: Sensor for hsa-mir-208a),–,–,–,105,29.2,96.4
"UAAGUAUGUUGAGGAUAUUAUGUCAAGAGAGAUGACAUGAGGAUCACCCAUGUGUGAAGAGGAUUUAAGAAGGCAACAUACUUA [JR_SSNG2_Sub090] (Eterna round: R96, puzzle: Same State NG 2)",39.9,47.7,66.7,–,–,–
"UAAUUAAGUCAAGGAUAUCACGUCGUUUAGACGUGAGAAGGUGAUUAAUACAUGAGGAUCACCCAUGUAAUACAUGAAUAAUUA [SSNG1/11-B3] (Eterna round: R96, puzzle: Same State NG 1)",51.3,59.5,64.5,–,–,–
UACAAUCUAUCUGAGGAUAUCAUGAAGAAAACAUGAGGAUCACCCAUGUGCAGGAUAACUGCAAAUGAGAAGGCAGAUAGAUUGU [Mat - Same State 2 - Mod - D5] (puzzle: Same State 2),–,–,–,8.19,18.5,18
UACAAUCUAUCUGAGGAUAUCAUGAUAAUAACAUGAGGAUCACCCAUGUGCAGGAAAACUGCAUAUGAGAAGGCAGAUAGAUUGA [Mat - Same State 2 - Mod - D13] (puzzle: Same State 2),–,–,–,89.9,93.1,417
UACUAUCUAUCUCAGGAUAUCAUGUCAAAGACAUGAGGAUCACCCAUGUACCAGGAAACUGGUUAUGAGAAGGGAGAUAGAUAGA [Mat - Same State 2 - Mod - D39] (puzzle: Same State 2),–,–,–,98.2,45.1,234
UAGAAACAUGAGGAUCACCCAUGUGUCAAAGACAUAGGAUAUCGUAACCGGCGCCGAAUACGAGAAGGGUGGUAAA [Arares] (puzzle: Same State 1),–,–,–,183,74.9,166
UAGAAACAUGAGGAUCACCCAUGUGUCAAAGACAUAGGAUAUCGUGACCGGCGCCGGACACGAGAAGGGUGGUAAA [Quingees] (puzzle: Same State 1),–,–,–,387,209,386
UAGAGAGGAAGCGAGGAUAUCGUGGGAGGAACAUGAGGAUCACCCAUGUGUGAUGUUGAGAGGGACGAGAAGGCGCGGGAAAUUA [JR_SS2_Sub080] (puzzle: Same State 2),–,–,–,176,160,175
